Results taken from paper PMC5709738 (The EMBO Journal, 2017).

B2: Ame1-Okp1 (K. lactis, full length) (complex, Kluyveromyces lactis)
chain 1: MDALKQRHLKLLYRQRGSASRTIDYDVVIEPELREDGDLVTDSQLTEQDDQSFPDIQVPSPDRVDDFDLNQGDGLMDKATANEDDIDHVIGDEVAAVNAPVETSDLVIDTTQFDSMTLSQLSTPLTSMATIDVLRRLLETVILVTIEERTSQFNRAGSARLRLKLKLEIKILTWFLHQSKEDLITISELNLSNNDLLYRLKQISLLKNSLSRSLLDVRSAISSYEGPNNALSEEQVALQNFKRINELILSQRIDTIINNNLPPDTSTFDTESKKGLLPTLKTLNESLQNTIG
chain 2: MSKRYLDDVLSPDTGTSDSDSSIENLNADNYRIDIVNDNARRDDIDRIQSSNLNHEPPYNLEGVFAIDDDEHGDEMVRKDSDRRQDITEDNDDSFVPDITTPPRERKRVRFGINEKGGDEEFNNVSPWDFKRLIRKFYKEQLPDTYQIRNWKRPSKDMLTNFIDLIENNIELASEEVFKQYHQELNQLYPDSEEQAKLKDSLENKVFDTTYNIKKRLKRTKVPSKIWVDNLNMEYIYAKGESIKKRYKSELDRAEAIERQLIREEEHLKSLQEKGETQAKKRKQVLSKELSELSKTMHPSLSVALSNTFGLIKDDKMSNEIYQQDKIDFNLKLKTDFSKPLISEKEENSLNGLTNAMDNNRELVNEIFGKISALLQPKKNSNE
notes: Ame1 of Kluyveromyces lactis; Okp1 of Kluyveromyces lactis; stands as the Ame1-Okp1 part of COMA; also called Okp1-Ame1; source: E. coli BL21 Rosetta 2(DE3)pLysS, co-expressed with Ctf19 and Mcm21 versions
B4: Nkp1-Nkp2 heterodimer (K. lactis) (complex, Kluyveromyces lactis)
chain 1: MDLESEIIQLVRQNIRPKFPSLNDEQQARLDNALKYDVNYDILKKELVEYIDDWKRNEYYDVLTNIGDLQRLDLGNMLNGDGVSFPKLHSDLANLPRFRLIDNENEMDQSLLHKYDSLRTRLIEKCRAIELIRSATNTDVNYQDINSMLSVVELRQWRDEIQMEWKELAQNLELILKTWPDLTEEKRSKLLQLIDSSSLKSILHIKDNIE
chain 2: MLHEVLYKHLDGILVSRLYTEDQFVDLFSRTIPESNTVIASQLYKSYEENDQRIIEKIDKLIDNKLSLIRVELEREQIEDSISLEEVNKLLHSIDDMLQQHLNQLNIELDNKNTKLLKYAMELSDIEAIDTSMYDNVAKLITDMETNQPSS
notes: Nkp1 of Kluyveromyces lactis; Nkp2 of Kluyveromyces lactis; also called NN; source: E. coli BL21 Rosetta 2(DE3)pLysS, purified

Tests used:
[1] = target: B4; assay: SEC; analytical SEC of purified K. lactis samples alone and combined, Superdex 200 10/300, 4°C; fractions on SDS-PAGE; details: both partners purified
[2] = target: the molecule itself; assay: native MS; nanoflow spectra and tandem mode with collision-induced dissociation in the gas phase (argon); subassemblies stripped of subunits
Nkp1 (K. lactis) = target: T1, Nkp1 (K. lactis) (Kluyveromyces lactis, UniProt Q6CPR4 1-210); assay: HDX-MS; purified assemblies in D2O buffer, quenched at pH ~2.5, pepsin column; exchange patterns compared between assemblies; details: both partners purified
T1 construct: Nkp1 of Kluyveromyces lactis; also called non-essential kinetochore protein 1; HisNkp1; source: E. coli BL21 Rosetta 2(DE3)pLysS, purified
T1 sequence (looked up): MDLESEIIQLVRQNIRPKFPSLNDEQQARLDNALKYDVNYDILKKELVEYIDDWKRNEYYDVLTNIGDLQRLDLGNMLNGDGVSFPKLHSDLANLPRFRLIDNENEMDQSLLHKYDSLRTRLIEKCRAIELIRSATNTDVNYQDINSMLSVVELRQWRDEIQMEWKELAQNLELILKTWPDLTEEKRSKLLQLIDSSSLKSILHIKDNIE

[3] = target: B2; assay: native MS; nanoflow spectra and tandem mode with collision-induced dissociation in the gas phase (argon); subassemblies stripped of subunits; details: both partners purified
[4] = target: T2, COMA (K. lactis, full length: Ame1, Ctf19, Mcm21, Okp1) (Kluyveromyces lactis, UniProt Q6CUE5 1-292; Q6CRN7 1-270; Q6CVQ9 1-293; Q6CJY0 1-383); assay: as above; details: both partners purified
T2 construct: Ame1 of Kluyveromyces lactis; Ctf19 of Kluyveromyces lactis; Mcm21 of Kluyveromyces lactis; Okp1 of Kluyveromyces lactis; copies: + + +
T2 sequence (looked up) 1: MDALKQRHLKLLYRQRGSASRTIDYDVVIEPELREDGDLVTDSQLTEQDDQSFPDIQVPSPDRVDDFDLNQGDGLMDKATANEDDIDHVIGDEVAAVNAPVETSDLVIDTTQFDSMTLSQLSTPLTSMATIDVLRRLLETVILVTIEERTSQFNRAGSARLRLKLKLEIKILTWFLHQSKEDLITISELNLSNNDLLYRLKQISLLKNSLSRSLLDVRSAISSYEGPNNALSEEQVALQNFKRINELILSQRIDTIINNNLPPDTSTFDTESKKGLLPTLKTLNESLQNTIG
T2 sequence (looked up) 2: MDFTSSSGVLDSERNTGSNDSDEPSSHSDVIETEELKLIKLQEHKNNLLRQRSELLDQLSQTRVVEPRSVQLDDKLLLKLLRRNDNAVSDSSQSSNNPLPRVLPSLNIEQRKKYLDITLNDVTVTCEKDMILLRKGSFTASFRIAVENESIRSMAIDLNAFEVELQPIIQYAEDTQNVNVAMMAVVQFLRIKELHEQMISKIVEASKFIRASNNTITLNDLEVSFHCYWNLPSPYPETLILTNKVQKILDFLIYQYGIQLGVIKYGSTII
T2 sequence (looked up) 3: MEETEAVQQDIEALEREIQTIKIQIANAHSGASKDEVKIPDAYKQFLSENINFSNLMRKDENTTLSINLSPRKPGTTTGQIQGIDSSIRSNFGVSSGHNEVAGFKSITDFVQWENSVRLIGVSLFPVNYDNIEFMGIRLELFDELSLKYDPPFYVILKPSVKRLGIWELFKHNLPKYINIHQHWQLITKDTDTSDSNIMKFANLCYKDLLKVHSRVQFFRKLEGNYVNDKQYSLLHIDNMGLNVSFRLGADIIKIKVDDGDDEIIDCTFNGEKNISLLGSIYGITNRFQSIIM
T2 sequence (looked up) 4: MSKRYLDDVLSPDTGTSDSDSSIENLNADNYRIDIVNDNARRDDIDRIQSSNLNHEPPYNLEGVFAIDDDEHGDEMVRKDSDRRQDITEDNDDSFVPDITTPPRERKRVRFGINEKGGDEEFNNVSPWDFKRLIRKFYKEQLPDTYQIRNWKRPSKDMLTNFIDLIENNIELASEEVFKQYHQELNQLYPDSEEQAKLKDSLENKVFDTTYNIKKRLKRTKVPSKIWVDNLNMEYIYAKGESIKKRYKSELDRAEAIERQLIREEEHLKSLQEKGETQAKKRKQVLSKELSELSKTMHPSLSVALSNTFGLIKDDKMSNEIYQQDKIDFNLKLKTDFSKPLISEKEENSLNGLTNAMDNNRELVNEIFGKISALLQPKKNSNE

[5] = target: T2, COMA (K. lactis, full length: Ame1, …); assay: SEC; reconstituted K. lactis COMA-Nkp1-Nkp2; peak fractions on Coomassie-stained SDS-PAGE
[6] = target: T3, Ctf19_D-RWD-Mcm21_D-RWD-Okp1_229-383 (K. lactis) (Kluyveromyces lactis, UniProt Q6CRN7 107-270; Q6CVQ9 108-293; Q6CJY0 229-383); assay: SEC; analytical SEC of purified K. lactis samples alone and combined, Superdex 200 10/300, 4°C; fractions on SDS-PAGE; details: both partners purified
T3 construct: Ctf19 of Kluyveromyces lactis, residues 107-270; Mcm21 of Kluyveromyces lactis, residues 108-293; also called Ctf19-Mcm21-Okp1 variant that includes Okp1 segment 3; CMO; source: E. coli BL21 Rosetta 2(DE3)pLysS, co-expressed, purified; copies: + +
T3 sequence (looked up) 1: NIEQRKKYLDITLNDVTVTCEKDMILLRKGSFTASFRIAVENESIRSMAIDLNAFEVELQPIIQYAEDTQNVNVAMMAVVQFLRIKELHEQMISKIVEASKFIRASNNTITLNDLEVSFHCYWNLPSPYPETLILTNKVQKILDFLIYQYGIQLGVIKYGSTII
T3 sequence (looked up) 2: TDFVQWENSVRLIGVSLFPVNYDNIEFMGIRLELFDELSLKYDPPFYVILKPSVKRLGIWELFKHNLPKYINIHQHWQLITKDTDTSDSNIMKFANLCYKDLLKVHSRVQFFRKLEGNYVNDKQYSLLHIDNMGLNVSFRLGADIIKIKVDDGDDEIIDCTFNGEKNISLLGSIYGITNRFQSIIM
T3 sequence (looked up) 3: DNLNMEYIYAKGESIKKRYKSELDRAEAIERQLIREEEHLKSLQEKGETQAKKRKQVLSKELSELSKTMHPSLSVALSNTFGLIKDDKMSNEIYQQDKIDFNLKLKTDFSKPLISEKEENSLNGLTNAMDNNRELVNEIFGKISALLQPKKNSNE

B1: Okp1_229-383 (K. lactis) (domain or fragment, Kluyveromyces lactis, UniProt Q6CJY0 229-383, looked up)
chain: DNLNMEYIYAKGESIKKRYKSELDRAEAIERQLIREEEHLKSLQEKGETQAKKRKQVLSKELSELSKTMHPSLSVALSNTFGLIKDDKMSNEIYQQDKIDFNLKLKTDFSKPLISEKEENSLNGLTNAMDNNRELVNEIFGKISALLQPKKNSNE
notes: also called Okp1 variant with segments 1, 2 and 3; source: E. coli BL21 Rosetta 2(DE3)pLysS, co-expressed with Ctf19_D-RWD and Mcm21_D-RWD, purified
[1]
  binding result: binds

## B2
[2]
  binding result: binds

B3: Nkp2 (K. lactis) (natural protein, Kluyveromyces lactis, UniProt Q6CSR8 1-151, looked up)
chain: MLHEVLYKHLDGILVSRLYTEDQFVDLFSRTIPESNTVIASQLYKSYEENDQRIIEKIDKLIDNKLSLIRVELEREQIEDSISLEEVNKLLHSIDDMLQQHLNQLNIELDNKNTKLLKYAMELSDIEAIDTSMYDNVAKLITDMETNQPSS
notes: Nkp2 of Kluyveromyces lactis; also called non-essential kinetochore protein 2; source: E. coli BL21 Rosetta 2(DE3)pLysS, purified
Nkp1 (K. lactis)
  binding result: binds
[3]
  binding result: binds
[4]
  binding result: binds

## B4
[5]
  binding result: binds
[6]
  binding result: binds
